Reference: the supplement of paper PMC9112550, “Optimization of the antimicrobial peptide Bac7 by deep mutational scanning” (BMC Biology, 2022)

Tested on: Escherichia coli TOP10
Test: shrunken log2 fold change of peptide-encoding DNA abundance (4.5 h post-induction vs induction); higher = less antimicrobial activity (less host growth inhibition)
Conditions: time post-induction: 4.5 h; library: site-saturation at positions 5, 18, 19, 20
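Further: peptides expressed intracellularly from a pBAD plasmid library in pooled LB shake-flask culture, induced with 0.3% L-arabinose, DNA abundance read by NGS, three biological replicates, DESeq2 with apeglm shrinkage.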

Sequence	shrunken log2 fold change
RRIRYRPPRLPRPRPRPWCNPRP	-0.123
RRIRVRPPRLPRPRPRPNLMPRP	-0.153
RRIRHRPPRLPRPRPRPNNRPRP	-0.329
RRIRKRPPRLPRPRPRPNPNPRP	0.179
RRIRYRPPRLPRPRPRPKRTPRP	-0.0162
RRIRVRPPRLPRPRPRPCFIPRP	-0.599
RRIRKRPPRLPRPRPRPGEMPRP	1.62
RRIRTRPPRLPRPRPRPPEDPRP	-0.0168
RRIRQRPPRLPRPRPRPPVRPRP	0.739
RRIRGRPPRLPRPRPRPPQFPRP	0.676
RRIRRRPPRLPRPRPRPDCIPRP	0.0761
RRIRPRPPRLPRPRPRPTQYPRP	0.287
RRIRNRPPRLPRPRPRPCQIPRP	-0.0177
RRIRWRPPRLPRPRPRPHREPRP	-0.0345
RRIRNRPPRLPRPRPRPICCPRP	-0.062
RRIRERPPRLPRPRPRPIQTPRP	0.0703
RRIRARPPRLPRPRPRPWSVPRP	0.0303
RRIRRRPPRLPRPRPRPERNPRP	-0.085
RRIRNRPPRLPRPRPRPASIPRP	-0.0365
RRIRYRPPRLPRPRPRPYWHPRP	-0.451
RRIRYRPPRLPRPRPRPQGAPRP	-0.238
RRIRVRPPRLPRPRPRPLPRPRP	0.642
RRIRRRPPRLPRPRPRPALWPRP	1.02
RRIRSRPPRLPRPRPRPEKFPRP	-0.146
RRIRERPPRLPRPRPRPPQRPRP	0.315

Sequence	shrunken log2 fold change
RRIRMRPPRLPRPRPRPMHVPRP	-0.207
RRIRNRPPRLPRPRPRPFDMPRP	-0.0725
RRIRNRPPRLPRPRPRPNARPRP	0.0522
RRIRDRPPRLPRPRPRPWVMPRP	-0.167
RRIRWRPPRLPRPRPRPALNPRP	0.801
RRIRNRPPRLPRPRPRPADEPRP	-0.00151
RRIRARPPRLPRPRPRPAYNPRP	0.0748
RRIRTRPPRLPRPRPRPYGFPRP	-0.315
RRIRPRPPRLPRPRPRPEGCPRP	0.17
RRIRVRPPRLPRPRPRPCERPRP	-0.00992
RRIRIRPPRLPRPRPRPRVTPRP	-0.0426
RRIRSRPPRLPRPRPRPQNEPRP	-0.0107
RRIRIRPPRLPRPRPRPSIVPRP	-0.477
RRIRHRPPRLPRPRPRPCPCPRP	-0.114
RRIRIRPPRLPRPRPRPHILPRP	-1
RRIRQRPPRLPRPRPRPHPVPRP	0.0674
RRIRGRPPRLPRPRPRPQVMPRP	0.532
RRIRTRPPRLPRPRPRPQYAPRP	-0.317
RRIRNRPPRLPRPRPRPEKTPRP	-0.0226
RRIRERPPRLPRPRPRPEIEPRP	0.0286
RRIRYRPPRLPRPRPRPICEPRP	-0.404
RRIRNRPPRLPRPRPRPYCKPRP	-0.258
RRIRFRPPRLPRPRPRPEGPPRP	0.0494
RRIRRRPPRLPRPRPRPEVHPRP	0.648
RRIRFRPPRLPRPRPRPAKCPRP	-0.00691

Sequence	shrunken log2 fold change
RRIRYRPPRLPRPRPRPKEIPRP	-0.0434
RRIRNRPPRLPRPRPRPYPVPRP	0.00968
RRIRLRPPRLPRPRPRPRLLPRP	0.167
RRIRVRPPRLPRPRPRPQPFPRP	-0.0258
RRIRFRPPRLPRPRPRPEGTPRP	0.055
RRIRERPPRLPRPRPRPDLEPRP	-0.0701
RRIRNRPPRLPRPRPRPGFQPRP	-0.0148
RRIRMRPPRLPRPRPRPRFEPRP	0.36
RRIRKRPPRLPRPRPRPSYNPRP	-0.397
RRIRARPPRLPRPRPRPRITPRP	0.173
RRIRWRPPRLPRPRPRPIMCPRP	-0.0807
RRIRTRPPRLPRPRPRPMSAPRP	-0.152
RRIRGRPPRLPRPRPRPQRRPRP	0.565
RRIRCRPPRLPRPRPRPKASPRP	-0.00163
RRIRPRPPRLPRPRPRPFDFPRP	-0.206
RRIRKRPPRLPRPRPRPSDVPRP	-0.157
RRIRQRPPRLPRPRPRPHKSPRP	-0.0741
RRIRGRPPRLPRPRPRPLNVPRP	-0.095
RRIRGRPPRLPRPRPRPHDTPRP	0.358
RRIRTRPPRLPRPRPRPGIQPRP	0.131
RRIRGRPPRLPRPRPRPHVDPRP	0.0583
RRIRWRPPRLPRPRPRPFWCPRP	0.193
RRIRWRPPRLPRPRPRPSLHPRP	-0.044
RRIRYRPPRLPRPRPRPVHIPRP	-0.526
RRIRTRPPRLPRPRPRPEQVPRP	-0.00471

Sequence	shrunken log2 fold change
RRIRARPPRLPRPRPRPRQAPRP	0.414
RRIRCRPPRLPRPRPRPLLGPRP	0.201
RRIRNRPPRLPRPRPRPLGPPRP	0.0324
RRIRYRPPRLPRPRPRPDWFPRP	-0.987
RRIRQRPPRLPRPRPRPLVAPRP	0.034
RRIRWRPPRLPRPRPRPDMYPRP	-0.389
RRIRHRPPRLPRPRPRPDEKPRP	-0.00141
RRIRPRPPRLPRPRPRPSQLPRP	-0.0897
RRIRCRPPRLPRPRPRPKVTPRP	-0.455
RRIRFRPPRLPRPRPRPHDSPRP	0.0531
RRIRCRPPRLPRPRPRPWIGPRP	-0.775
RRIRVRPPRLPRPRPRPSEGPRP	-0.116
RRIRIRPPRLPRPRPRPQKTPRP	-0.168
RRIRPRPPRLPRPRPRPDQNPRP	-0.065
RRIRDRPPRLPRPRPRPHCLPRP	0.12
RRIRVRPPRLPRPRPRPPQKPRP	0.23
RRIRLRPPRLPRPRPRPGKLPRP	-0.00186
RRIRGRPPRLPRPRPRPKQAPRP	0.865
RRIRARPPRLPRPRPRPEQQPRP	0.785
RRIRDRPPRLPRPRPRPNIIPRP	-0.117
RRIRWRPPRLPRPRPRPDIYPRP	-0.0594
RRIRDRPPRLPRPRPRPQMIPRP	-0.197
RRIRIRPPRLPRPRPRPQTVPRP	-0.271
RRIRARPPRLPRPRPRPSPEPRP	0.41
RRIRSRPPRLPRPRPRPTGVPRP	0.0241

Sequence	shrunken log2 fold change
RRIRNRPPRLPRPRPRPVEWPRP	0.00664
RRIRTRPPRLPRPRPRPIWYPRP	-0.601
RRIRYRPPRLPRPRPRPDTRPRP	-0.153
RRIRFRPPRLPRPRPRPQIKPRP	-0.291
RRIRWRPPRLPRPRPRPWVQPRP	0.128
RRIRARPPRLPRPRPRPFLYPRP	-0.0961
RRIRRRPPRLPRPRPRPLWSPRP	0.136
RRIRVRPPRLPRPRPRPYWGPRP	-0.526
RRIRQRPPRLPRPRPRPNNMPRP	-0.378
RRIRNRPPRLPRPRPRPRFTPRP	-0.286
RRIRQRPPRLPRPRPRPCFMPRP	0.628
RRIRKRPPRLPRPRPRPQSLPRP	-0.017
RRIRSRPPRLPRPRPRPTFMPRP	-0.335
RRIRHRPPRLPRPRPRPPISPRP	-0.378
RRIRVRPPRLPRPRPRPRPPPRP	0.843
RRIRDRPPRLPRPRPRPHIYPRP	-0.0848
RRIRSRPPRLPRPRPRPRIAPRP	0.174
RRIRQRPPRLPRPRPRPYQGPRP	0.00707
RRIRFRPPRLPRPRPRPKPDPRP	0.463
RRIRKRPPRLPRPRPRPKNNPRP	-0.047
RRIRIRPPRLPRPRPRPTSHPRP	-0.19
RRIRDRPPRLPRPRPRPEWSPRP	0.364
RRIRSRPPRLPRPRPRPLPHPRP	0.277
RRIRDRPPRLPRPRPRPMPWPRP	-0.0438
RRIRARPPRLPRPRPRPSEPPRP	0.11

Sequence	shrunken log2 fold change
RRIRMRPPRLPRPRPRPKNEPRP	0.881
RRIRTRPPRLPRPRPRPTTCPRP	-0.00487
RRIRTRPPRLPRPRPRPPFKPRP	0.332
RRIRIRPPRLPRPRPRPNYKPRP	-0.911
RRIRGRPPRLPRPRPRPVADPRP	1.34
RRIRERPPRLPRPRPRPIITPRP	-0.867
RRIRHRPPRLPRPRPRPRGAPRP	0.152
RRIRVRPPRLPRPRPRPPCEPRP	0.229
RRIRYRPPRLPRPRPRPHNYPRP	-0.365
RRIRFRPPRLPRPRPRPVNYPRP	0.184
RRIRHRPPRLPRPRPRPSYVPRP	-1.15
RRIRFRPPRLPRPRPRPAGPPRP	0.118
RRIRTRPPRLPRPRPRPFDQPRP	0.176
RRIRVRPPRLPRPRPRPTWGPRP	0.436
RRIRGRPPRLPRPRPRPGLYPRP	0.341
RRIRFRPPRLPRPRPRPPWTPRP	0.123
RRIRCRPPRLPRPRPRPFFFPRP	0.101
RRIRDRPPRLPRPRPRPMCSPRP	0.261
RRIRMRPPRLPRPRPRPDQFPRP	-0.00541
RRIRCRPPRLPRPRPRPRAGPRP	0.472
RRIRWRPPRLPRPRPRPSTKPRP	-0.0244
RRIRLRPPRLPRPRPRPFSCPRP	0.0222
RRIRERPPRLPRPRPRPMFGPRP	0.0215
RRIRHRPPRLPRPRPRPYKWPRP	-0.0842
RRIRFRPPRLPRPRPRPNGKPRP	0.0809
